{"source": "paper PMC10397247", "binders": {"B1": {"name": "4H1035-AA (peptide)", "chain": "DENAALEAEIAALEAEIAALKAENAALEG"}}, "assay_in_all_cases": "two-hybrid library CCmax;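 note: natural log of median RNA to DNA barcode read ratio; higher means stronger binding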", "key": {"4H1035-AA": {"biological_target": "T1, 4H1035-AA", "T1 chain": "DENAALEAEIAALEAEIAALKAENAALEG"}, "4H1064-AA": {"biological_target": "T2, 4H1064-AA", "T2 chain": "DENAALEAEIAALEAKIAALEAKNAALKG", "settings": "mean of both orientations"}, "4H1109-AA": {"biological_target": "T3, 4H1109-AA", "T3 chain": "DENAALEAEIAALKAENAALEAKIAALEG", "settings": "mean of both orientations"}, "4H1146-AA": {"biological_target": "T4, 4H1146-AA", "T4 chain": "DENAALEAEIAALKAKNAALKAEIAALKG", "settings": "mean of both orientations"}, "4H1348-AA": {"biological_target": "T5, 4H1348-AA", "T5 chain": "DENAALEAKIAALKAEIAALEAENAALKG", "settings": "mean of both orientations"}, "4H1391-AA": {"biological_target": "T6, 4H1391-AA", "T6 chain": "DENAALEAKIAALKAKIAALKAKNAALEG", "settings": "mean of both orientations"}, "4H146-AA": {"biological_target": "T7, 4H146-AA", "T7 chain": "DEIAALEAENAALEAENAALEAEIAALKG"}, "4H1809-AA": {"biological_target": "T8, 4H1809-AA", "T8 chain": "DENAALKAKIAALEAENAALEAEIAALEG", "settings": "mean of both orientations"}, "4H1854-AA": {"biological_target": "T9, 4H1854-AA", "T9 chain": "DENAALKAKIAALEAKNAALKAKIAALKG", "settings": "mean of both orientations"}, "4H189-AA": {"biological_target": "T10, 4H189-AA", "T10 chain": "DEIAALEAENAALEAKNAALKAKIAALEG", "settings": "mean of both orientations"}, "4H2248-AA": {"biological_target": "T11, 4H2248-AA", "T11 chain": "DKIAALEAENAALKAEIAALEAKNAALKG", "settings": "mean of both orientations"}, "4H2283-AA": {"biological_target": "T12, 4H2283-AA", "T12 chain": "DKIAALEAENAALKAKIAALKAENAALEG", "settings": "mean of both orientations"}, "4H2713-AA": {"biological_target": "T13, 4H2713-AA", "T13 chain": "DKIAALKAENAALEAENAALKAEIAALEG"}, "4H2742-AA": {"biological_target": "T14, 4H2742-AA", "T14 chain": "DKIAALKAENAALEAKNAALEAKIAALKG", "settings": "mean of both orientations"}, "4H2948-AA": {"biological_target": "T15, 4H2948-AA", "T15 chain": "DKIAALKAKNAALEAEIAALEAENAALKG", "settings": "mean of both orientations"}, "4H2991-AA": {"biological_target": "T16, 4H2991-AA", "T16 chain": "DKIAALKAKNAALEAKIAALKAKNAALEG", "settings": "mean of both orientations"}, "4H3029-AA": {"biological_target": "T17, 4H3029-AA", "T17 chain": "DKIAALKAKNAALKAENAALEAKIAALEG", "settings": "mean of both orientations"}, "4H3066-AA": {"biological_target": "T18, 4H3066-AA", "T18 chain": "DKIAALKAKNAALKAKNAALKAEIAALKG", "settings": "mean of both orientations"}, "4H3102-AA": {"biological_target": "T19, 4H3102-AA", "T19 chain": "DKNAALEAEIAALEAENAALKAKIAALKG", "settings": "mean of both orientations"}, "4H3121-AA": {"biological_target": "T20, 4H3121-AA", "T20 chain": "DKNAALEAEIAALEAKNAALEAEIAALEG", "settings": "mean of both orientations"}, "4H3417-AA": {"biological_target": "T21, 4H3417-AA", "T21 chain": "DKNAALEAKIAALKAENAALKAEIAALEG", "settings": "mean of both orientations"}, "4H3446-AA": {"biological_target": "T22, 4H3446-AA", "T22 chain": "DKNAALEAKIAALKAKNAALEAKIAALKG", "settings": "mean of both orientations"}, "4H3591-AA": {"biological_target": "T23, 4H3591-AA", "T23 chain": "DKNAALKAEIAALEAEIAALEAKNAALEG", "settings": "mean of both orientations"}, "4H3628-AA": {"biological_target": "T24, 4H3628-AA", "T24 chain": "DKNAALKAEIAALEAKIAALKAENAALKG", "settings": "mean of both orientations"}, "4H3666-AA": {"biological_target": "T25, 4H3666-AA", "T25 chain": "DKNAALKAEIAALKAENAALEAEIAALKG", "settings": "mean of both orientations"}, "4H3709-AA": {"biological_target": "T26, 4H3709-AA", "T26 chain": "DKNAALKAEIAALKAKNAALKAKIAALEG", "settings": "mean of both orientations"}, "4H391-AA": {"biological_target": "T27, 4H391-AA", "T27 chain": "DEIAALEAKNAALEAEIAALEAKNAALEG", "settings": "mean of both orientations"}, "4H3920-AA": {"biological_target": "T28, 4H3920-AA", "T28 chain": "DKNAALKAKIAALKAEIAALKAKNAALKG", "settings": "mean of both orientations"}, "4H3939-AA": {"biological_target": "T29, 4H3939-AA", "T29 chain": "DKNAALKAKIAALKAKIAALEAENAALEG", "settings": "mean of both orientations"}, "4H428-AA": {"biological_target": "T30, 4H428-AA", "T30 chain": "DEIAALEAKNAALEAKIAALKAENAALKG", "settings": "mean of both orientations"}, "4H478-AA": {"biological_target": "T31, 4H478-AA", "T31 chain": "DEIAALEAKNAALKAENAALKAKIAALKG", "settings": "mean of both orientations"}, "4H497-AA": {"biological_target": "T32, 4H497-AA", "T32 chain": "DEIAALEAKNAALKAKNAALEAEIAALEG", "settings": "mean of both orientations"}, "4H656-AA": {"biological_target": "T33, 4H656-AA", "T33 chain": "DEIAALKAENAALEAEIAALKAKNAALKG", "settings": "mean of both orientations"}, "4H675-AA": {"biological_target": "T34, 4H675-AA", "T34 chain": "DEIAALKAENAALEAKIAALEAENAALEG", "settings": "mean of both orientations"}, "4H971-AA": {"biological_target": "T35, 4H971-AA", "T35 chain": "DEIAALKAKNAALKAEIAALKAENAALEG", "settings": "mean of both orientations"}}}
{"binder": "B1", "values": [{"measurement": "interaction score", "setting": "4H1035-AA", "value": -0.719}, {"measurement": "interaction score", "setting": "4H1064-AA", "value": -0.486}, {"measurement": "interaction score", "setting": "4H1109-AA", "value": -1.69}, {"measurement": "interaction score", "setting": "4H1146-AA", "value": -1.34}, {"measurement": "interaction score", "setting": "4H1348-AA", "value": 1.45}, {"measurement": "interaction score", "setting": "4H1391-AA", "value": 0.63}, {"measurement": "interaction score", "setting": "4H146-AA", "value": -1.39}, {"measurement": "interaction score", "setting": "4H1809-AA", "value": -1.83}, {"measurement": "interaction score", "setting": "4H1854-AA", "value": -0.616}, {"measurement": "interaction score", "setting": "4H189-AA", "value": -1.24}, {"measurement": "interaction score", "setting": "4H2248-AA", "value": -1.39}, {"measurement": "interaction score", "setting": "4H2283-AA", "value": -1.67}, {"measurement": "interaction score", "setting": "4H2713-AA", "value": -1.63}, {"measurement": "interaction score", "setting": "4H2742-AA", "value": -1.51}, {"measurement": "interaction score", "setting": "4H2948-AA", "value": -1.56}, {"measurement": "interaction score", "setting": "4H2991-AA", "value": -1.12}, {"measurement": "interaction score", "setting": "4H3029-AA", "value": -2.17}, {"measurement": "interaction score", "setting": "4H3066-AA", "value": -0.363}, {"measurement": "interaction score", "setting": "4H3102-AA", "value": -1.34}, {"measurement": "interaction score", "setting": "4H3121-AA", "value": -1.67}, {"measurement": "interaction score", "setting": "4H3417-AA", "value": -1.73}, {"measurement": "interaction score", "setting": "4H3446-AA", "value": -1.17}, {"measurement": "interaction score", "setting": "4H3591-AA", "value": -1.08}, {"measurement": "interaction score", "setting": "4H3628-AA", "value": 1.36}, {"measurement": "interaction score", "setting": "4H3666-AA", "value": -1.55}, {"measurement": "interaction score", "setting": "4H3709-AA", "value": -0.573}, {"measurement": "interaction score", "setting": "4H391-AA", "value": -1.84}, {"measurement": "interaction score", "setting": "4H3920-AA", "value": 1.9}, {"measurement": "interaction score", "setting": "4H3939-AA", "value": 0.466}, {"measurement": "interaction score", "setting": "4H428-AA", "value": -1.35}, {"measurement": "interaction score", "setting": "4H478-AA", "value": -1.03}, {"measurement": "interaction score", "setting": "4H497-AA", "value": -1.73}, {"measurement": "interaction score", "setting": "4H656-AA", "value": -1.67}, {"measurement": "interaction score", "setting": "4H675-AA", "value": -2.03}, {"measurement": "interaction score", "setting": "4H971-AA", "value": -0.881}]}
